# Measurements as given in US20150037340A1 (PEIRRE FABRE MEDICAMENT, published 2015).
# T1: human extracellular domain (ECD) of Axl, His-tagged (pCEP[AXL]His6, produced in HEK293E) (human, UniProt P30530 26-451)
# T1 construct: also called human Axl ECD; rhAxl ECD; not shown: His6 tag
# T1 sequence: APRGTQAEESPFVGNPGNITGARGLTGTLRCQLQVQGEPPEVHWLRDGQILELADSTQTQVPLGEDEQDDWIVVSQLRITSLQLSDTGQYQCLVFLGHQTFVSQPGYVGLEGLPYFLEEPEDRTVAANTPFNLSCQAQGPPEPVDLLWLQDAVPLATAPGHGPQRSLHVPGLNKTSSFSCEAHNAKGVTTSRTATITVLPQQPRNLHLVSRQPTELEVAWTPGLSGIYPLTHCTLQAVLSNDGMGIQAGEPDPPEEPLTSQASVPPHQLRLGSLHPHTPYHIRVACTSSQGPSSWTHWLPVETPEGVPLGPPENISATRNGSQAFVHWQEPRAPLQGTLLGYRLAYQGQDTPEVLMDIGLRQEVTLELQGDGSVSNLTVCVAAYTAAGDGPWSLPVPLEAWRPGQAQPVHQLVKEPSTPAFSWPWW
# T2: recombinant human Mer-Fc (R and D Systems, cat No 891-MR) (human, UniProt Q12866 26-499, limits assumed)
# T2 construct: Bought protein; also called rhMer-Fc; rhMer; not shown: Fc portion
# T2 sequence (looked up): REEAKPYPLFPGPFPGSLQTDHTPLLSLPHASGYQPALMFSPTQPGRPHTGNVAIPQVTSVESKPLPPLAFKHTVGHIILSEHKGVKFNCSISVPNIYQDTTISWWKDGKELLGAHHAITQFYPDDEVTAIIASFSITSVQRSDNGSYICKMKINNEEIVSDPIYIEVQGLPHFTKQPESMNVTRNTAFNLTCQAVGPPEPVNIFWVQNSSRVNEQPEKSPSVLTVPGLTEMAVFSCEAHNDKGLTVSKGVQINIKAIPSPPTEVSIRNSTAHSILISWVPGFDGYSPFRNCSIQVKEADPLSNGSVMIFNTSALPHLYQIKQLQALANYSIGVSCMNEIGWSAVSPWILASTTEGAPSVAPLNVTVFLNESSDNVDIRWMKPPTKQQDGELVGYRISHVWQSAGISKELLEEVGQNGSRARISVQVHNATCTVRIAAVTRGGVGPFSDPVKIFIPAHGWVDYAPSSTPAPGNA
# T3: recombinant human Dtk-Fc (R and D Systems, cat No 859-DK) (human, UniProt Q06418 41-428)
# T3 construct: Bought protein; also called rhDtk-Fc; rhDtk; not shown: Fc portion
# T3 sequence (looked up): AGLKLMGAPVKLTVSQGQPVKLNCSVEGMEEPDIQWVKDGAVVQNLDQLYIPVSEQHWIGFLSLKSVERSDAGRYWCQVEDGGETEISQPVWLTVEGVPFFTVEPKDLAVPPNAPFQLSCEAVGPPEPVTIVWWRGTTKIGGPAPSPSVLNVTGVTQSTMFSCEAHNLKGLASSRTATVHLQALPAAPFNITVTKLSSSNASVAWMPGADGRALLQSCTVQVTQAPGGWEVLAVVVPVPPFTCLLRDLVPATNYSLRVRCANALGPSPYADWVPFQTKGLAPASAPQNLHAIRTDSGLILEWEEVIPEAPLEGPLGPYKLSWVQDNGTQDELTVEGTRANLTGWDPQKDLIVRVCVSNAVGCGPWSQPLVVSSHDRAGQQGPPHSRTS
# B1: 1613F12 antibody (murine form) (antibody, V domains shown)
# VH: EVHLQQSGAELVKPGASVKLSCTASGFNIRDTYIHWVKQRPEQGLEWIGRLDPANGHTKYGPNFQGRATMTSDTSSNTAYLQLSSLTSEDTAVYYCARGAYYYGSSGLFYFDYWGQGTTLSVSS
# VL: DVQITQSPSYLATSPGETITINCRASKSISKYLAWYQEKPGKTNKLLIYSGSTLQSGVPSRFSGSGSGTDFTLTISSLEPEDFAMYFCQQHHEYPLTFGAGTELELK
# notes: Whole murine monoclonal antibody purified from a hybridoma; a murine IgG1 (9G4) serves as its isotype control; also called m1613F12; monoclonal antibody 1613F12 derived from the hybridoma I-4505
# Columns and labels:
# [1] = molecular target: T1, human extracellular domain (ECD) of …; experiment: SPR (Biacore X), antibody captured on CM5 chip, Axl ECD as analyte, 1:1 Langmuir model
# Protocol: Briefly, the experiments were realized using a sensor chip CM5 as the biosensor. Rabbit IgGs were immobilized on the flow cells 1 and 2 (FC 1 and FC2) of a CM5 sensor chip at a level of 9300-10000 response units (RU) using amine coupling chemistry to capture antibodies.
# Binding is evaluated using multiple cycles. Each cycle of measure is performed using a flow rate of 30 μl/imin in a HBS-EP buffer. Then the Axl antibody to test is captured on the chip for 1 min on FC2 only to reach a mean capture value of 311.8 RU (SD=5.1 RU) for the 1613F12. The analyte (Axl ECD antigen) is injected starting at 200 nM and using two-fold serial dilutions to measure rough ka and kd in real time.
# At the end of each cycle, the surfaces are regenerated by injecting a 10 mM glycine hydrochloride pH1.5 solution to eliminate the antibody-antigen complexes and the capture antibody as well. The considered signal corresponds to the difference of the signals observed between FC1 and FC2 (FC2-FC1). Association rates (ka) and dissociation rates (kd) were calculated using a one-to-one Langmuir binding model. The equilibrium dissociation constant (KD) is determined as the […]. The experimental values were analyzed in the Biaevaluation software version 3.0. A χ2 analysis will be performed to assess the accuracy of the data.
# [2] = molecular target: T2, recombinant human Mer-Fc (R and D …); experiment: ELISA on coated rhMer-Fc, detection with goat anti-mouse IgG-HRP
# Protocol: (§1) Then ½ serial dilutions were done over 12 columns. Plates were washed and a goat anti-mouse (Jackson) specific IgG-HRP was added for 1 h at 37° C. Reaction development was performed using the TMB substrate solution. […] Coating controls were performed in presence of a goat anti-human IgG Fc polyclonal serum labelled with HRP (Jackson, ref 109-035-098) and/or in presence of a HRP-coupled anti-Histidine antibody (R and D Systems, ref: MAB050H). Results are represented in FIGS. 2A, 2B and 2C, respectively.
# [3] = molecular target: T3, recombinant human Dtk-Fc (R and D …); experiment: ELISA on coated rhDtk-Fc, detection with goat anti-mouse IgG-HRP
# Protocol: as §1
# [4] = molecular target: monkey Axl receptor expressed on the surface of COS7 cells (African green monkey); experiment: flow cytometry on COS7 cells, goat anti-mouse Alexa 488
binder,measurement,setting,value
B1,Kd,[1],2.29 nM
same,koff,[1],0.000242 s⁻¹
same,kon,[1],106000 M⁻¹ s⁻¹
same,binding result,[2],no binding (tested: log -7.5 M)
same,binding result,[3],no binding (tested: log -7.5 M)
same,EC50 (read off the curve),[4],1 nM
